Here are results for 1 substance from publication PMC5290946.

What is called Kd is the equilibrium constant for the complex coming apart.

For the assay, the target named is His-MxiC(C184A/C233S/A247C/S290C), labelled with MTSL (Shigella flexneri) (UniProt Q04640). In words: continuous wave EPR; X-band, room temperature; MTSL-labelled His-MxiC(Cys) at ~75 μM with a 10-fold (~750 μM) or n-fold excess of the unlabelled partner, in 20 mM Tris-HCl pH 7.5, 100 mM NaCl; binding read from the change of the spin labels' spectrum; KD estimated from the molar ratio that gives half of the maximal change.

“His6-IpaD(15-332) C322S (from UniProt P18013 15-332) (domain or fragment)”: the dissociation constant Kd is 730 µM.
